Source: US20220387586A1 (Hoffmann-La Roche, published 2022)

T1: human Fc tagged human Lag3 extra cellular domain (human, UniProt P18627 29-450, biotinylated in the epitope binning, the SA CAP SPR and the FACS competition assay)
T1 construct: In-house fusion; also called huLag3-Fc; biotinylated, huFc-tagged huLag3; not shown: human Fc tag
T1 sequence: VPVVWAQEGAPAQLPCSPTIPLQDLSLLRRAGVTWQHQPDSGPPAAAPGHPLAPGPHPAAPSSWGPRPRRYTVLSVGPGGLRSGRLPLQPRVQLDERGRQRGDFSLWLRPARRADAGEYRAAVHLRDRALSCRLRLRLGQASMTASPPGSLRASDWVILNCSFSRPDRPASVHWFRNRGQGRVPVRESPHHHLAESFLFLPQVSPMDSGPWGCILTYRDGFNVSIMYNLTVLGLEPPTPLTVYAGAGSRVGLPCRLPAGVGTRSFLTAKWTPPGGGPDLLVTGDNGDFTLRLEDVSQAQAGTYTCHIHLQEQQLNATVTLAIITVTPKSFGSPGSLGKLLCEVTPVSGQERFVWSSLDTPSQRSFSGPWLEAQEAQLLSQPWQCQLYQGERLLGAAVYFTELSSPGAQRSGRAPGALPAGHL

B1: aLAG3(0403) Fab fragment (Fab, V domains shown)
VH: EVQLLESGGGLVQPGGSLRLSCAASGFTFDDYTMHWVRQAPGKGLEWVSLVSWDGGGTYYTNSVKGRFTISRDNSKNTLYLQMNSLRAEDTAVYFCAKAITDTSLYGYDYWGQGILVTVSS
VL: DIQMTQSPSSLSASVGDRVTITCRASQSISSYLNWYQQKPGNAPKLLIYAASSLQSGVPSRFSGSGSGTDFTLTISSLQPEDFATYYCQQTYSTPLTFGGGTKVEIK
B2: MDX-26H10 (26H10) Fab fragment (Fab, V domains shown)
VH: QVQLVESGGGVVQPGRSLRLSCAASGFTFSSYGMHWVRQAPGKGLEWVAVIWYDGSNKYYADSVKGRFTISRDNSKNTLYLQMNSLRAEDTAVYYCAREWAVASWDYGMDVWGQGTTVTVSS
VL: not shown
B3: MDX-25F7 (25F7) Fab fragment (Fab, V domains shown)
VH: QVQLQQWGAGLLKPSETLSLTCAVYGGSFSDYYWNWIRQPPGKGLEWIGEINHNGNTNSNPSLKSRVTLSLDTSKNQFSLKLRSVTAADTAVYYCAFGYSDYEYNWFDPWGQGTLVTVSS
VL: EIVLTQSPATLSLSPGERATLSCRASQSISSYLAWYQQKPGQAPRLLIYDASNRATGIPARFSGSGSGTDFTLTISSLEPEDFAVYYCQQRSNWPLTFGQGTNLEIK
B4: aLAG3(0417) Fab fragment (Fab, V domains shown)
VH: EVQLVESGGGLVQPGGSLRLACAASGFTFSDYAMSWVRQAPGKGLEWVSGIDNSGYYTYYTDSVKGRFTISRDDVKNTLYLQMNSLRAEDTAVYLCTKTHSGLIVNDAFDIWGQGTMVTVSS
VL: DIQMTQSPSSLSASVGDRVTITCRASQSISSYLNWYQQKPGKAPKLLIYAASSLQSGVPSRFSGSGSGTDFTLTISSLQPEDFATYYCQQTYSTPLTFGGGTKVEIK
notes: also called aLAG3 (417)
B5: aLAG3(0411) Fab fragment (Fab, V domains shown)
VH: EVHLLESGGGLVQPGGSLRLSCAASGFIVDDYTMNWVRQAPGKGLEWVSVISWDGGATYYADSVKGRFTISRDDFKNTLYLQMNSLRAEDTAVYYCAKGLTDDTLYGSDYWGQGTLVTVSS
VL: DIQMTQSPSSLSASVGDRVTITCRASQSIVSYLNWYQQKPGKAPKLLIYASSSLQSGVPSRFSGSGSGTDFTLTISSLQPEDFATYYCQQTYSTPLTFGGGTKVEIK
notes: also called aLAG3 (411)

These binders were tested against T1, human Fc tagged human Lag3 extra … (assay: SPR (Biacore T200), huLag3-Fc captured, antibody Fab fragment as analyte, 25 °C).
Experimental: Therefore two flow cells of a C1 biosensor chip were prepared in a Biacore T200 by immobilizing neutravidin, diluted to 25 μg/ml in acetate buffer pH 4.5, onto it using the ‘immobilization wizard’. […] Then, CaptureSelect™ Biotin Anti-IgG-Fc (Human) Conjugate was bound to the neutravidin, using a 20 μg/ml dilution in running buffer (HBS-EP+, GE Healthcare).
The method itself consisted of four commands per cycle. […] Second command: sample injection for 120s followed by a 1200s long dissociation at a flow speed of 30 μl/min. Third and fourth command: regeneration by injecting Glycine-HCl pH 1.5 for 30 seconds.

koff [s⁻¹]	Binder
5e-06	B1
0.000399	B2
0.000386	B3
9.48e-05	B4
3.87e-05	B5
